# Measured values as given in PMC11813584, “An odorant-binding protein functions in fire ant social immunity interfacing with innate immunity” (Open Biology, 2025).
# B1: SiApoLp-III, purified, His-tag removed (natural protein)
# chain: EQSGTQPQLSDYIRDAQTAISSLGTQIQEHLNLPNQEELANTFKEQSTNFANNVQAYLQNITDEVKAKSPELEDFWTNMKTKLSEAVDNLHINPETTEQVNQLRAKFQEGVQTLVTESENAAKTISENSGKVQESIAKITKQAIDIAVKASQNLNQQLQQATTPQP
# Molecular target: T1, SiOBP15, purified, His-tag removed (Solenopsis invicta)
# T1 construct: the ORF cloned into pET28a; also called purified SiOBP15; SiOBP15 protein (ligand); source: E. coli BL21, purified (Ni-Sepharose Cl-6B agarose), His-tag removed by protease cleavage
# Assay: SPR; open SPR; SiOBP15 coupled to a COOH chip until saturation, SiApoLp-III or SiFABP5 titrated as analyte; one-to-one model (TraceDrawer)
# Settings: both partners purified
binder,measurement,value
B1,Kd,713 nM
